# Results as given in US20230303695A1 (SHANGHAI XBH BIOTECHNOLOGY, published 2023).
# Numbering of substitutions follows the chain as printed.
# T1: D1 domain of IGSF8 (recombinant protein) (human, UniProt Q969P0 28-149, limits assumed)
# T1 construct: domain: D1 (Ig V-set domain); also called Ig V-set domain of IGSF8
# T1 sequence (looked up): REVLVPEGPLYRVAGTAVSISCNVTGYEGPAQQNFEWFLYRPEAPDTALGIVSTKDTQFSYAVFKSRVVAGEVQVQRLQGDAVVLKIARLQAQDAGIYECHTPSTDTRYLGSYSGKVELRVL
# T2: recombinant human IGSF8 extracellular domain tagged by a human Fc region (IGSF8-hFc) (human, UniProt Q969P0 28-579, biotin label in Examples 17, 18 and 28 (site not given))
# T2 construct: also called IGSF8-Fc fusion protein; IGSF8-hFc-biotin; not shown: human Fc region
# T2 sequence: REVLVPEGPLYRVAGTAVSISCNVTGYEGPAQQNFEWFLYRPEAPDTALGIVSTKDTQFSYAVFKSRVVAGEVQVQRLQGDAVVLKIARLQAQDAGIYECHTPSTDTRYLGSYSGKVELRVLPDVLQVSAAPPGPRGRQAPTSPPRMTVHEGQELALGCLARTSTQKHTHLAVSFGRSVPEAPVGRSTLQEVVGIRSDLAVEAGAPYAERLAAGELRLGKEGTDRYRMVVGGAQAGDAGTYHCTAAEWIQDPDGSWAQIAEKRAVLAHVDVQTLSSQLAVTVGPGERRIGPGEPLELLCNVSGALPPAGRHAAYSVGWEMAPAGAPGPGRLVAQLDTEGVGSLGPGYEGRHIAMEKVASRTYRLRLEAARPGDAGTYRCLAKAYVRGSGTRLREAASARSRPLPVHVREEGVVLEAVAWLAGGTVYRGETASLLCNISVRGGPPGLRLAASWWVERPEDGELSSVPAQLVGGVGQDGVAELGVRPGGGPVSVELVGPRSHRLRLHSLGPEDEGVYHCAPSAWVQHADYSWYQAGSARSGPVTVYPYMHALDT
# T3: full-length IGSF8 (recombinant antigen of the SPR screen; IGSF8 target antigen of the phage panning) (human, UniProt Q969P0 28-579, limits assumed)
# T3 sequence (looked up): T2 sequence
# T4: IGSF8 extracellular domain (ED) (Homo sapiens (Human), UniProt Q969P0 28-579)
# T4 construct: also called IGSF8 ECD
# T4 sequence: T2 sequence
# B1: Antibody C39 (8G4) (antibody, V domains shown)
# VH: EVQLLESGGGLVQPGGSLRLSCAASGFTFSSYAMSWVRQAPGKGLEWVSGITGSGGSTYYADSVKGRFTISRDNSKNTLYLQMNSLRAEDTAVYYCARSRNLDSWGQGTLVTVSS
# VL: DIQLTQSPSSLSASVGDRVTITCRASQSIHNYLNWIQQTPGKAPKLLVFAASTLQRGVPPRYSGRGSGTEFTLTISSLQPEDFATYYCQQSYTTPLTFGGGTKVEIR
# notes: also called mab-8G4 (C39)
# B2: Antibody C34 (1D7) (antibody, V domains shown)
# VH: EVQLLESGGGLVQPGGSLRLSCAVSGFTFNSFAMSWVRQAPGKGLEWVSAISGSGGGTYYADSVKGRFTISRDNSKNTLYLQMNSLRAEDTAIYYCAREVDGYGAFDIWGQGTMVTVSS
# VL: DIQMTQSPSSLSASVGNRVTITCRASQTIRNYLNWYQQKPGEAPKVLIYGASTLQSGVPSRFSASGSGTDFTLTISSLQPDDFATYHCQQTFSDPYTFGQGTKVEIK
# notes: also called mAb-1D7 (C34)
# B3: L1-26 (antibody, V domains shown)
# VH: QVQLVESGGGVVQPGRSLRLSCAASGFTFSTYGMHWVRQAPGKGLEWVAVIWDDGSYKYYGDSVKGRFTISRDNSKNTLYLQMNSLRAEDTAVYYCARDGSGWGYAFDIWGQGTLVTVSS
# VL: DIQLTQSPSSLSASVGDRVTITCQASQDISPYLNWYQHKPGKAPKPLVFGSPNLETGVPSRFSASGSGTDFTLTISSLQPEDFATYYCQQYDSFPYTFGQGTKVEIK
# B4: L1-32 (antibody, V domains shown)
# VH: B3 VH with D54G
# VL: B3 VL with S30G, Y32W
# B5: L1-31 (antibody, V domains shown)
# VH: B3 VH with D54G, S56K
# VL: B3 VL with S30G, Y32W, G50R
# B6: L1-29 (antibody, V domains shown)
# VH: B3 VH
# VL: B3 VL with S30G, Y32W, G50D, S51A
# B7: L1-28 (antibody, V domains shown)
# VH: B3 VH
# VL: B3 VL with S30E, P31W, Y32W, V48I, F49Y, A64G, L73F, F83I
# B8: L1-30 (antibody, V domains shown)
# VH: B3 VH
# VL: B3 VL with S30G, Y32W, S51A, P52D
# B9: L1-33 (antibody, V domains shown)
# VH: B3 VH with D54G, S56K
# VL: B3 VL with S30G, Y32W
# B10: L1-27 (antibody, V domains shown)
# VH: B3 VH
# VL: B3 VL with P31Y, Y32N
# B11: Antibody C3 (antibody, V domains shown)
# VH: QVQLVESGGGLVQPGGSLRLSCAASGFTFSHYPMRWVRQAPGKGLEWVSSIRRSGGRTKYADSVKGRFTISRDNSKNTLYLQMNSLRAEDTAVYYCARDATGRHYNGMDVWGKGTTVTVSS
# VL: DVVMTQSPSSLSASVGDRVTITCRTSQVIGTSLNWYQQKPGRAPRLLIYSASNLQSGVPSRFSGSGHGTQFTLTISSLQPEDFATYSCQQSSRVPHTFGQGTKLEMRR
# notes: also called anti-IGSF8 C3
# B12: Antibody C6 (antibody, V domains shown)
# VH: B11 VH with Q1E, H31P, P33R, R35H, S50R, R52N, R53P, K59W, K113Q, T116M
# VL: DIQMTQSPSTLSASVGDRVTITCRASQSINKWLAWYQQKPGKAPKLLIYKASTLESGVPSRFSGSGSGTDFTLTINSLQPEDFATYYCQQSHSAPWTFGQGTKVEIER
# notes: also called anti-IGSF8 C6
# B13: Antibody C5 (antibody, V domains shown)
# VH: EVQLVQSGGGLVQPGGSLRLSCAASGFTFSRYRMAWVRQAPGKGLEWVSNITRSGGVTRYADSVKGRFTISRDNSKNTLYLQMNSLRAEDTAVYYCARDPNRVTAISSHYGMDVWGKGTTVTVSS
# VL: EIVLTQSPSTLSASVGDRVTISCRASQSISRWLAWYQQKPGQAPRLLIYDASNRATGVPARFSVSGSETDSTLTISSLEPEDFAMYYCQQRSNWPPMYTFGQGTKLEIKR
# notes: also called anti-IGSF8 C5
# B14: Antibody C1 (antibody, V domains shown)
# VH: QVQLLQSGGGLVQPGGSLRLSCAASGFTFSRYRMSWVRQAPGKGLEWVSRISRSGGATAYADSVKGRFTISRDNSKNTLYLQMNSLRAEDTAVYYCARDATGRHYNGMDVWGRGTLVTVSS
# VL: EIALTQSPSSLSASVGDRVTITCRASQTITRHLNWFQQKPGKAPNLLIHGTSALQTGVPPRFSGGGSGTDFTLTINSLQPEDFGTYYCQQSHTKPWTFGPGTKVEIKR
# notes: also called anti-IGSF8 C1
# B15: Antibody C2 (antibody, V domains shown)
# VH: B14 VH with Q1E, R31S, R33P, S35N, A57R, A59S, G102R, R113K, L116T
# VL: DVVMTQSPATLSLSPGERASLSCRASRSVGKYLAWYQQKPGQAPRLLFYYASLRAGDIPSRFTASGSGTDFTLTISRLEPEDFAVYYCQQYGSSPRTFGQGTKLEMKR
# notes: also called anti-IGSF8 C2
# B16: Antibody C7 (antibody, V domains shown)
# VH: B11 VH with Q1E, V5E, H31S, R35N, S50R, R52S, K59S, G102R
# VL: B15 VL with D1E, V2T, V3T, M4L
# notes: also called anti-IGSF8 C7
# B17: Antibody C8 (antibody, V domains shown)
# VH: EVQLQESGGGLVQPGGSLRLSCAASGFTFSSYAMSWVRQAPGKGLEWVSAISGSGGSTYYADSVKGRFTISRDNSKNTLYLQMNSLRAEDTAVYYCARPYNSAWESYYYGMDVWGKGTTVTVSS
# VL: DIQMTQSPSSVSASVGDRVTITCRASQGISSRLAWYQQKPGKAPKLLIYAASSLQSGVPSRFSGSGSGTDFTLTISSLQPEDFATYYCQQRHSYPITFGQGTRLEIKR
# notes: also called anti-IGSF8 C8
# B18: Antibody C12 (antibody, V domains shown)
# VH: EVQLVESGGGLVQPGGSLRLSCAASGFTFSKYKMSWVRQAPGKGLEWVSTIAPSGGGTRYADSVKGRFTISRDNSKNTLYLQMNSLRAEDTAVYYCARGGHFSNPWGQGTLVTVSS
# VL: DVVMTQSPLSLPVTLGQPASISCRSSQSLVHTDGDTYLNWYQQRPGQSPRRLIYKVSKRDSGVPDRFSGSGSGTDFTLKISRVEAEDVGVYYCMQGIKRPYTLGQGTKLEIKR
# notes: also called anti-IGSF8 C12
# B19: Antibody C11 (antibody, V domains shown)
# VH: EVQLVESGGGLVQPGGSLRLSCAASGFTFSRYRMYWVRQAPGKGLEWVSSISSSGGRTKYADSVKGRFTISRDNSKNTLYLQMNSLRAEDTAVYYCARGVRYCSSPSCSRGPRYAMDVWGKGTTVTVSS
# VL: DIQMTQSPSSLSASVGDRVTITCRASYVIRNDLSWYQQKPGKAPKLLIYGTSSLHNGVPSRFSGSGYGTYFTLTISSLQPEDFGTYYCLQDDKYPLTFGGGTKVEIKR
# notes: also called anti-IGSF8 C11
# B20: Antibody C4 (antibody, V domains shown)
# VH: B19 VH with E1Q, V5L, E6Q, Y35G, S52A, S53R, K59Y
# VL: B17 VL with D1E, Q3V, R32W, R91A, H92N, Y94F
# notes: also called anti-IGSF8 C4
# B21: Antibody C9 (antibody, V domains shown)
# VH: B19 VH with R33D, Y35S, S50R, S52R, S53Y, K59G
# VL: DVVMTQSPATLSLSPGEGATLSCRASQSVRGYLAWYQQKPGQAPRLLIYDTFKRATGIPARFSGSGSGADFTLTISSLEPEDSAVYYCQQYFASPWTFGQGTKVEIKR
# notes: also called anti-IGSF8 C9
# B22: Antibody C10 (antibody, V domains shown)
# VH: EVQLLESGGGLVQPGGSLRLSCAASGFTFSRYRMYWVRQAPGKGLEWVSTISRSGGRTVYADSVKGRFTISRDNSKNTLYLQMNSLRAEDTAVYYCARDATGRHYNGMDVWGQGTLVTV
# VL: ETTLTQSPATLSVSPGERATLSCRASQSVSSNVAWYQQKPGQAPRLLMFGSGTRATGIPARFSGSGSGTEFTLTISSLQSEDFAAYYCQQYNDWPSFGQGTRVEIKG
# notes: also called anti-IGSF8 C10
# Target: T1, D1 domain of IGSF8 (recombinant protein)
# Assay: SPR, Biacore T100
row,Binder,Kd
1,B1,< 50 nM
2,B2,< 50 nM

# Target: T2, recombinant human IGSF8 extracellular …
# Assay: SPR, Ab captured
# Protocol: The binding affinities of the L1 and L2 antibodies to IGSF8 recombinant protein were determined by surface plasmon resonance (SPR). Briefly, anti-human Fab antibody was imobilized on acarboxyl-derivatized SPR chip surface, and the antibodies were captured on the resulting surface at 5 μg/ml for 30 seconds.
Binder,Kd,koff,kon
B3,0.987 nM,0.000497 s⁻¹,503000 M⁻¹ s⁻¹
B4,0.021 nM,6.56e-06 s⁻¹,312000 M⁻¹ s⁻¹
B5,0.00371 nM,7.8e-07 s⁻¹,210000 M⁻¹ s⁻¹
B6,0.0112 nM,4.25e-06 s⁻¹,381000 M⁻¹ s⁻¹
B7,0.00117 nM,4.28e-07 s⁻¹,367000 M⁻¹ s⁻¹
B8,0.00642 nM,3.03e-06 s⁻¹,472000 M⁻¹ s⁻¹
B9,0.029 nM,8.01e-06 s⁻¹,276000 M⁻¹ s⁻¹
B10,1.88 nM,0.000835 s⁻¹,444000 M⁻¹ s⁻¹

# Target: T3, full-length IGSF8 (recombinant antigen …)
# Assay: SPR, Biacore T100
row,Binder,Kd
1,B2,2.12 nM

# Target: T4, IGSF8 extracellular domain (ED)
# Assay: ELISA on IGSF8 extracellular domain
row,Binder,binding result
1,B11,binds
2,B12,binds
3,B13,binds
4,B14,binds
5,B15,binds
6,B16,binds
7,B17,binds
8,B18,binds
9,B19,binds
10,B20,binds
11,B21,binds
12,B22,binds
